Here are results for six molecules from patent US20160208018A1 (JUNO THERAPEUTICS, published 2016).

Where two headings read alike, the source gives them in different places.

Experiment [1] concerns the target T1, Human ROR1 (receptor tyrosine kinase-like orphan receptor 1) (human, UniProt Q01973 30-937).
T1 construct: also called hROR1; K562/ROR1
The experiment in a line: flow cytometry competition, competitor R12 scFv on ROR1-expressing cells, mean (n = 4). The procedure: (§1) Assays also were performed to assess competition of the clones with the reference antibody (R12 scFv), for binding to ROR1-expressing cells. VH clones were titrated against 2 nM Myc-R12 on ROR1/K562 cells and competition assessed with an anti-Myc-Alexa647 secondary antibody, and the half maximal inhibitory concentration (IC₅₀) determined for respective clones.
(§2) Assays also were performed to assess competition (measured as half maximal inhibitory concentration (IC₅₀)) of the clones with the R12 scFv reference antibody for binding to ROR1-expressing cells, as described in Example 1. Percent (%) max ROR1 and % max competition, as compared to the R12 scFv reference antibody, were determined as described in Example 1.

Experiment [2] deals with T1, Human ROR1 (receptor tyrosine …). The experiment is described as follows: flow cytometry on ROR1-expressing K562 and CHOK1 cells, mean (n = 4). (In general: Flow cytometry measures light scatter and fluorescence of single cells or particles in a stream.)
For experiment [3] the target is unchanged. The experiment is described as follows: flow cytometry on ROR1-expressing cells; predicted plateau relative to R12 scFv = 100%. The procedure:
(§3) Additionally, percent (%) maximum (max) binding to ROR1-expressing cells and % max competition with the reference antibody (R12 scFv) were calculated. Percent max binding and competition values were calculated based on predicted plateaus (measured by Prism® using four parameter non-linear regression), relative to values for R12 scFv binding and inhibition, respectively, assigned as 100% in each study.
as §2

Experiment [4] shares this target. The experiment is described as follows: competition with R12 scFv on ROR1-expressing cells; predicted plateau relative to R12 scFv = 100%. On the procedure: as §3, §2
Experiment [5] shares this target. The experiment is described as follows: flow cytometry competition, competitor 2 nM Myc-R12 scFv on ROR1/K562 cells, mean (n not given). The procedure:
as §1

The target is the same in experiment [6]. The experiment is described as follows: flow cytometry on ROR1-expressing cells; predicted plateau relative to R12 scFv = 100%. The procedure: as §3
The source holds these as a separate data set.

For experiment [7] the target is unchanged. The experiment is described as follows: flow cytometry on ROR1-expressing K562 and CHOK1 cells (n = 1).
Experiment [8] has the same target. The experiment in a line: competition with Myc-R12 scFv on ROR1/K562 cells; predicted plateau relative to R12 scFv = 100%. The procedure: as §1, §3
Experiment [9] shares this target. The experiment is described as follows: flow cytometry on ROR1-expressing K562 and CHOK1 cells, mean (n = 9).
The target is the same in experiment [10]. The experiment in a line: flow cytometry competition, competitor R12 scFv on ROR1-expressing cells, mean (n = 5). On the procedure: as §1, §2
For experiment [11] the target is unchanged. The experiment is described as follows: flow cytometry competition, competitor 2 nM Myc-R12 scFv on ROR1/K562 cells, mean (n = 3). On the procedure:
as §1

The target is the same in experiment [12]. The experiment is described as follows: flow cytometry on ROR1-expressing K562 and CHOK1 cells, mean (n = 2).
The target is the same in experiment [13]. The experiment in a line: flow cytometry competition, competitor R12 scFv on ROR1-expressing cells, mean (n = 3). On the procedure: as §1, §2
The target is the same in experiment [14]. The experiment in a line: flow cytometry on ROR1-expressing K562 and CHOK1 cells, mean (n = 7).
For experiment [15] the target is unchanged. The experiment is described as follows: flow cytometry competition, competitor 2 nM Myc-R12 scFv on ROR1/K562 cells, mean (n = 8). The procedure: as §1

As usually defined, the IC50 is the concentration that gives 50% inhibition. In general, EC50 refers to the concentration that produces a half-maximal response. High values mean a less potent agent, low ones a more potent agent.

T1 sequence (Q01973 30-937): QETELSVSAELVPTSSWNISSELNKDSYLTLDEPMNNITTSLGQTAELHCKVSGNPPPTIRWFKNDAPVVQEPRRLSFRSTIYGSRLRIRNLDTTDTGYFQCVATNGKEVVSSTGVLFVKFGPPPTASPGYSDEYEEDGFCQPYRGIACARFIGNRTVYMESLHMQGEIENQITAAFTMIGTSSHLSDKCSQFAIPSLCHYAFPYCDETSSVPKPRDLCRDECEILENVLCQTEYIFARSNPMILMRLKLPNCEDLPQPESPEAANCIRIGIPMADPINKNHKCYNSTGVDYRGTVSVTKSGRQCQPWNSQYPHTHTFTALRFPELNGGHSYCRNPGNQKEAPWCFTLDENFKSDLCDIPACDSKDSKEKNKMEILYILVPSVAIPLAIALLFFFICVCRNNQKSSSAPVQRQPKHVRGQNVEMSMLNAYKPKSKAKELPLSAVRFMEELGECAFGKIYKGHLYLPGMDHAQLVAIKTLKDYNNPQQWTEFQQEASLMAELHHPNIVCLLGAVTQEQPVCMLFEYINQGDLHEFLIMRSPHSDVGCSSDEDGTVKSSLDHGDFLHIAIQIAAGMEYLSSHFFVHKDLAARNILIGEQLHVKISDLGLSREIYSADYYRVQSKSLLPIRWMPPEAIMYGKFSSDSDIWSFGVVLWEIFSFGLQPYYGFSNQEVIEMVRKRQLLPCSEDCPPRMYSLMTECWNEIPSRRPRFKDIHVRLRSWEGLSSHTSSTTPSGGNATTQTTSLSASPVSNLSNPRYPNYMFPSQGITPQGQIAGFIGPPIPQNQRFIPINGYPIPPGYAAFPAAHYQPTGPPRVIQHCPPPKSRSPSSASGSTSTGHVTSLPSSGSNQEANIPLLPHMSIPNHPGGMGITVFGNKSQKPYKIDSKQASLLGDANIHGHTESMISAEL

B1: Clone 40 scFv (scFv)
scFv: QVTLKESGGGLVKPGGSLRLSCAASGFTFSNAWMSWVRQAPGKGLEWVGRIKSKTDGGTTDYAAPVKGRFTISRDDSKNTLYLQMNSLRTEDTAVYYCARDFGRWSYYFDYWSQGTLVTVSSQPVLTQPHSVSESPGKTVTISCTRSSGNIASNFVQWYQRRPDGATTNVIYEDTQRPSGVSGRFSGSIDRSSNSASLTISGLRAEDEADYYCQSYDGRNLMFGGGTKVTVL
notes: the two differ at the VH N-terminus; Printed without a linker
B1 had an IC50 in experiment [1] of 22.8 nM. In [2], this molecule came in with a half-maximal effective concentration (EC50) of 3.2 nM. Further, the “% Max Binding” value in experiment [3] is 81%. In addition, the “% Max Competition” value in experiment [4] was 70%.

B2: Clone V224 (VHH)
VHH: QVQLVESGGGLVKPGGSLRLSCAASGFTFINAWMSWVRQAPGKGLEWVGRIKSKTDGGTTDYAAPVKGRFTISRDDSKNTLYLQMNSLKTEDTAVYYCARTYSSSWYESLLFDYWGQGTLVTVSS
notes: human VH-only single-domain antibody, no VL
Molecule B2 showed an IC50 in experiment [5] of 94.6 nM. Further, the “% Max Binding” value in experiment [6] is 74%. This molecule also returned an EC50 in experiment [7] of 46.2 nM. Besides, the “% Max Competition” value in [8] is 32%.

B3: Clone 20 scFv (scFv)
scFv: QVTLKESGGGLVKPGGSLRLSCAASGFTFSNAWMSWVRQAPGKGLEWVGRIKSKTDGGTTDYAAPVKGRFTISRDDSKNTLYLQMNSLKTEDTAVYYCARDFGRWSYYFDYWSQGTLVTVSSNIQMTQSPSSLSASVGDRVTITCRASQSINKWLAWYQQKPGKAPKLLIHDASTLESGVPSRFSGSGSGTEFTLTISSLHPDDSATYYCQQLKSRPLSFGEGTKLEIK
notes: 262 differs only at the VH N-terminus; Printed without a linker
As for B3, the concentration for a half-maximal effect (EC50) in [9] worked out at 2.6 nM. Also, the 50% inhibitory concentration (IC50) in experiment [10] turned out to be 4.7 nM. For the same molecule, the “% Max Binding” value in experiment [3] was 97%. Further, in experiment [4], the “% Max Competition” value was 77%.

B4: Clone V18 (VHH)
VHH: QVQLVESGGGLVKPGGSLRLSCAASGFTFSNAWMSWVRQAPGKGLEWVGRIKSKTDGGTTDYAAPVKGRFTISRDDSKNSLYLQMNSLKTEDTAVYYCARDFGRWSYYFDYWGQGTLVTVSS
In the case of B4, in experiment [11], the IC50 came to 3.4 nM. Besides, the “% Max Binding” value in [6] was 37%. In experiment [12], this molecule showed an EC50 of 0.2 nM. In [8], the “% Max Competition” value was 54%.

B5: Clone 48 scFv (scFv)
scFv: QVTLKESGGGLVKPGGSLRLSCAASGFTFSNAWMSWVRQAPGKGLEWVGRIKSKTDGGTTDYAAPVKGRFTISRDDSKNTLYLQMNSLKTEDTAVYYCARDFGRWSYYFDYWSQGTLVTVSSGGGGSGGGGSGGGGSQSVLTQPSSVSGTPGQRVTISCSGSSSNIGSNYVYWYQQLPGTAPKLLIYRNNQRPSGVPDRFSGSKSGTSASLAISGLRSEDEADYYCAAWDDSLSGVVFGGGTKLTVL
B5 had a 50% inhibitory concentration (IC50) in experiment [13] of 53.7 nM. The same molecule gave an EC50 in experiment [2] of 9.2 nM. Further, in experiment [3], the “% Max Binding” value is 69%. The “% Max Competition” value in experiment [4] was 55%.

B6: Clone V70 (VHH)
VHH: QVQLLESGGGLVQPGRSLRLSCTASGFTFGDYAMSWVRQAPGKGLEWVSSISGSGRSTDHADYVKGRFTISRDNSKNTVYLQMNRLRAEDTAVYYCAKVSNYEYYFDYWAQGTLVTVSS
notes: as for B2
For the molecule B6, a half-maximal effect in [14] (EC50) was put at 3.1 nM. For the same molecule, the “% Max Binding” value in [6] was 92%. The same molecule returned an IC50 in experiment [15] of 38.2 nM. Further, the “% Max Competition” value in experiment [8] was 92%.
